Experimental findings from the supplement of paper PMC9112550, “Optimization of the antimicrobial peptide Bac7 by deep mutational scanning” (BMC Biology, 2022) are described below.

The data set has as its system Escherichia coli TOP10. The data set can be described thus: shrunken log2 fold change of peptide-encoding DNA abundance (4.5 h post-induction vs induction); higher = less antimicrobial activity (less host growth inhibition). Conditions: time post-induction: 4.5 h; library: site-saturation at positions 5, 18, 19, 20.
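Also: peptides expressed intracellularly from a pBAD plasmid library in pooled LB shake-flask culture, induced with 0.3% L-arabinose, DNA abundance read by NGS, three biological replicates, DESeq2 with apeglm shrinkage.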

Consider RRIRSRPPRLPRPRPRPLCDPRP, for which the “shrunken log2 fold change” value is 0.155.
Take RRIRLRPPRLPRPRPRPFIIPRP: the “shrunken log2 fold change” value is -0.271.
On to RRIRPRPPRLPRPRPRPPIEPRP, for which the “shrunken log2 fold change” value was -0.0597.
As for RRIRERPPRLPRPRPRPNWWPRP, the “shrunken log2 fold change” value was 0.196.
Consider RRIRKRPPRLPRPRPRPYISPRP, for which the “shrunken log2 fold change” value is -0.0238.
As for RRIRVRPPRLPRPRPRPYSEPRP, the figure is -0.217; as for RRIRARPPRLPRPRPRPGSVPRP, 0.301; as for RRIRSRPPRLPRPRPRPHCFPRP, 0.111.
As for RRIRFRPPRLPRPRPRPHSLPRP, the figure is -0.169.
For RRIRARPPRLPRPRPRPYPVPRP the value was -0.191; for RRIRERPPRLPRPRPRPTMWPRP, -0.421; for RRIRVRPPRLPRPRPRPFKGPRP, -0.0313.
On to RRIRSRPPRLPRPRPRPTYHPRP, for which the “shrunken log2 fold change” value is -0.492.
As for RRIRLRPPRLPRPRPRPMSAPRP, the figure is 0.344; as for RRIRGRPPRLPRPRPRPFMAPRP, 0.211; as for RRIRPRPPRLPRPRPRPKSHPRP, -0.246.
As for RRIRDRPPRLPRPRPRPRWQPRP, the figure is 0.0899.
As for RRIRQRPPRLPRPRPRPWKPPRP, the figure is -0.00884.
Turning to RRIRQRPPRLPRPRPRPQSFPRP, the “shrunken log2 fold change” value was -0.0179.
RRIRNRPPRLPRPRPRPHWDPRP: the “shrunken log2 fold change” value is -0.136.
For RRIRGRPPRLPRPRPRPQNMPRP the value was -0.399; for RRIRMRPPRLPRPRPRPQQFPRP, 0.359; for RRIRHRPPRLPRPRPRPRHCPRP, 0.03.
Regarding RRIRPRPPRLPRPRPRPKYWPRP, the “shrunken log2 fold change” value is -0.127.
On to RRIRKRPPRLPRPRPRPIQDPRP, for which the “shrunken log2 fold change” value is -0.106.
For RRIRRRPPRLPRPRPRPEDWPRP, the “shrunken log2 fold change” value came to 0.791.
As for RRIRWRPPRLPRPRPRPFNWPRP, the figure is -0.0369.
As for RRIRTRPPRLPRPRPRPQKNPRP, the figure is -0.419; as for RRIRERPPRLPRPRPRPHMRPRP, 0.0528.
Regarding RRIRQRPPRLPRPRPRPLDCPRP, the “shrunken log2 fold change” value is -0.221.
For RRIRNRPPRLPRPRPRPQTRPRP the value was 0.0246.
As for RRIRDRPPRLPRPRPRPKAFPRP, the figure is -0.00149; as for RRIRPRPPRLPRPRPRPFLFPRP, -0.204.
For RRIRGRPPRLPRPRPRPALPPRP the value was 0.696.
Consider RRIRYRPPRLPRPRPRPMYCPRP, for which the “shrunken log2 fold change” value was -0.00674.
As for RRIRVRPPRLPRPRPRPCLTPRP, the figure is -0.0353.
For RRIRPRPPRLPRPRPRPEKEPRP the value was -0.143; for RRIRWRPPRLPRPRPRPMCVPRP, 0.0501.
With RRIRWRPPRLPRPRPRPQTLPRP, the “shrunken log2 fold change” value came to 0.132.
As for RRIRFRPPRLPRPRPRPIMVPRP, the figure is -0.104.
Turning to RRIRYRPPRLPRPRPRPCSKPRP, the “shrunken log2 fold change” value is -0.012.
Consider RRIRVRPPRLPRPRPRPNKFPRP, for which the “shrunken log2 fold change” value is -0.255.
As for RRIRLRPPRLPRPRPRPNYGPRP, the figure is -0.0135; as for RRIRPRPPRLPRPRPRPPPWPRP, 0.588.
For RRIRYRPPRLPRPRPRPSNCPRP the value was -0.107; for RRIRFRPPRLPRPRPRPHGGPRP, 0.0953; for RRIRGRPPRLPRPRPRPWECPRP, -0.00149.
As for RRIRERPPRLPRPRPRPYTMPRP, the figure is -0.0431.
As for RRIRCRPPRLPRPRPRPAFYPRP, the “shrunken log2 fold change” value is -0.146.
As for RRIRHRPPRLPRPRPRPVNFPRP, the figure is -0.636.
